The subject of test [1] is release of IFN-γ upon T cell activation. In words: Fluorospot assay, IFN-γ release (DK1-TCL01, US1-TCL01). The test is classed as cell-based, human. To be noted: head prints TCL-02 DK1; 17 TCL-01 DK1 lines. A digest of the protocol: (§1)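 Grass-allergic donors' CD8-depleted PBMCs were expanded 14 days with natural grass allergens plus IL-2 to give TCL01 lines. These were incubated 20 h at 37° C with single peptides or peptide mixes at 2 μg/ml, and spot-forming cells were counted. Hit: SI≥2, p≤0.05, Poisson ≤0.05, ≥20 SFC/10^6 cells.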

The subject of test [2] is release of IL-5 upon T cell activation. In words: Fluorospot assay, IL-5 release (DK1-TCL01, US1-TCL01). The format is cell-based, human. To be noted: head prints TCL-02 DK1; text: 25 TCL-01 DK1 lines. The method in brief:
as §1

The subject of test [3] is allergen specific T cells. In words: T cell proliferation assay (72 h) on donor derived T cell lines (TCL02/TCL03). The format is cell-based, human. The following applies: for Proliferation % donor coverage (TCL-02 DK1): T cell lines TCL-02 DK1, 30 donors, hit criteria SI>=2, CPM>=1000; for Proliferation strength (TCL-02 DK1): T cell lines TCL-02 DK1, strength of response (average relative magnitude). A digest of the protocol: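 CD8-depleted PBMCs from grass-allergic donors stimulated with natural grass allergen mix (nPhl p 1 0.5 μg/ml) to raise T cell lines; restimulated with irradiated APCs, allergens or PHA-P (0.5 μg/ml) plus rIL-2. Proliferation to overlapping 20-mer and selected 15-mer grass peptides tested with TCL02 (day 24) or TCL03 (day 34).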

For test [4], the target named is 25 HLA Class II alleles (purified class II MHC molecules). In words: competitive radiolabelled-peptide binding to purified HLA class II (25 alleles, binder if IC50 <300 nM); worldwide phenotypic coverage of the alleles found to bind.

The source of these data is patent US20180207228A1, “PEPTIDE COMBINATIONS AND USES THEREOF FOR TREATING GRASS ALLERGY” (ALK-Abelló A/S, priority 2015, published 2018).

Where no end group is shown, it is not given here.

Consider WGAIWRIDTPDKLTGPFTVR-OH [compound 11], for which the “IFN-gamma % donor coverage (TCL-02 DK1)” value in test [1] worked out at 8.00%. Moreover, the “IL-5-Fluorospotr % donor coverage (TCL-02 DK1)” value in test [2] is 24.00%. Besides, in test [3], the “Proliferation % donor coverage (TCL-02 DK1)” value (from here on “Proliferation % donor coverage”) worked out at 46.67% and the “Proliferation strength (TCL-02 DK1)” value is 4.80.
In the same order, the values of WLDAKSTWYGKPTGAGPKDN-OH [compound 1] are 4.00%, 24.00%, 26.67% and 4.70.
In the same order, the values of YASGKVWGQKYFKGNFERLA-OH [compound 58] are 0.00%, 4.00%, 20.00% and 2.40.
For the molecule YFKGNFERLAITKGKVDPTD-OH [compound 59], the “IFN-gamma % donor coverage (TCL-02 DK1)” value in test [1] is 0.00%. For the same molecule, in test [2], the “IL-5-Fluorospotr % donor coverage (TCL-02 DK1)” value was determined as 0.00%. Also, in test [3], the “Proliferation % donor coverage” value is 30.00% and the “Proliferation strength (TCL-02 DK1)” value turned out to be 3.20.
As to YHFDLSGHAFGAMAKKGDEQ-OH [compound 5], in test [1], the “IFN-gamma % donor coverage (TCL-02 DK1)” value was 15.00%. In test [2], the “IL-5-Fluorospotr % donor coverage (TCL-02 DK1)” value stood at 24.00%. For the same molecule, in test [3], the “Proliferation % donor coverage” value is 46.67% and the “Proliferation strength (TCL-02 DK1)” value is given as 7.80.
The corresponding values for YIITPTNVSHIQSAVVSGRR-OH [compound 46] are 0.00%, 0.00%, 27.00% and 1.00.
As to YLALLVKYAAGDGNIVAVDI-OH [compound 105], the “IFN-gamma % donor coverage (TCL-02 DK1)” value in test [1] came to 4.00%. Also, the “IL-5-Fluorospotr % donor coverage (TCL-02 DK1)” value in test [2] is listed as 12.00%. In test [3], the “Proliferation % donor coverage” value is recorded as 16.67% and the “Proliferation strength (TCL-02 DK1)” value amounted to 1.90.
VRYTTEGGTKTEAEDVIPEG [peptide 212 (Phl p 1, 211)] yielded a Measured binding coverage 25 alleles in test [4] of 40%.
As to EQKLIEKINAGFKAALAAAA [peptide 229 (Phl p 5, 21)], in test [4], the Measured binding coverage 25 alleles was 98%.
Still for that read-out and setting: the value for HGSEEWEPLTKKGNVWEVKS [peptide 218 (Phl p 3, 38)] was 39%.
Still for that read-out and setting: the value for SMGDDHFWAVRGGGGESFGI [peptide 226 (Phl p 4, 195)] was 57%; that for AGYTPAAPAGAEPAGKATTE [peptide 228 (Phl p 5, 1)] was 69%; that for KYDAYVATLTEALR [peptide 137, Lol p 5b (Bio02A)] was 98%.
Same read-out and setting: the value for KEDFLGSLVKEIPPRLLYAK [peptide 222 (Phl p 4, 8)] was 100%; that for LKKAVTAMSEAEK [peptide 139, Lol p 5b (Bio04A)] was 62%.
Regarding KSSWGAIWRIDPKKPLK [peptide 136, Cyn d 1 (Ber02C)], in test [4], the Measured binding coverage 25 alleles was 76%.
Take PEVKYAVFEAALTKAIT [peptide 140, Lol p 5a (Rye09B)]: the Measured binding coverage 25 alleles in test [4] is 99%.
Regarding GDEQKLRSAGELELQFRRVK [peptide 206 (Phl p 1, 119)], in test [4], the Measured binding coverage 25 alleles was determined as 70%.
The same measure, in the same setting: the value for STGGAYESYKFIPALEAAVK [peptide 238 (Phl p 5, 185)] was 99%.
The same measure, in the same setting: the value for DKYRTFVATFGAASNKAFAE [peptide 231 (Phl p 5, 46)] was 99%; that for EPLQGPFNFRFLTEKGMKNV [peptide 216 (Phl p 2, 58)] was 92%.
Still for that read-out and setting: the value for GRGSGSSFEIKSTKPEASSG [peptide 202 (Phl p 1, 66)] was 84%.
Consider YIITPTNVSHIQSAVVSGRR [peptide 223 (Phl p 4, 55)], for which the Measured binding coverage 25 alleles in test [4] turned out to be 99%.
Same read-out and setting: the value for GFGMLLRKYGIAAENVIDVK [peptide 225 (Phl p 4, 163)] was 98%; that for TPFPHRKGVLFNIQYVNYWF [peptide 227 (Phl p 4, 386)] was 97%.
Still for that read-out and setting: the value for KSSKPLVGPFNFRFMSKGGM [peptide 220 (Phl p 3, 56)] was 96%; that for VATLSEALRIIAGTLEVHAV [peptide 234 (Phl p 5, 111)] was 94%; that for FAVVDLNKMRAVWVDGKART [peptide 224 (Phl p 4, 101)] was 99%.
In the case of EWVAMTKGEGGVWTFDSEEP [peptide 214 (Phl p 2, 40)], the Measured binding coverage 25 alleles in test [4] is 81%.
Same read-out and setting: the value for YHFDLSGHAFGAMAKKGDEQ [peptide 205 (Phl p 1, 103)] was 88%; that for PANDKFTVFEAAFNNAIKAS [peptide 237 (Phl p 5, 166)] was 99%; that for WGAIWRIDTPDKLTGPFTVR [peptide 211 (Phl p 1, 193)] was 90%.
The same measure, in the same setting: the value for GFKAALAAAAGVPPADKYRT [peptide 230 (Phl p 5, 31)] was 92%; that for TSKLDAAYKLAYKTAEGATP [peptide 232 (Phl p 5, 84)] was 93%.
The same measure, in the same setting: the value for TEAEDVIPEGWKADTSYESK [peptide 213 (Phl p 1, 221)] was 58%; that for EAKYDAYVATLSEALRIIAG [peptide 233 (Phl p 5, 104)] was 99%.
In test [4], SGKAFGAMAKKGQED [peptide 134, Cyn d 1 (Ber01)] came in with a Measured binding coverage 25 alleles of 47%.
On the same count and under the same terms, the value for GSDPKKLVLNIKYTRPGDSL [peptide 217 (Phl p 3, 11)] was 98%.
Same read-out and setting: the value for KFIPTLVAAVKQAYAAKQ [peptide 138, Lol p 5b (Bio03A)] was 99%.
Same read-out and setting: the value for AGELELQFRRVKSKYPEGTK [peptide 207 (Phl p 1, 127)] was 71%; that for FIPMKSSWGA [peptide 135, Cyn d 1 (Ber02)] was 19%; that for KDKWIELKESWGAIWRIDTP [peptide 210 (Phl p 1, 183)] was 92%.
On to LVKYVNGDGDVVAVDIKEKG [peptide 209 (Phl p 1, 163)], for which, in test [4], the Measured binding coverage 25 alleles is 85%.
The same measure, in the same setting: the value for TDDNEEPIAPYHFDLSGHAF [peptide 204 (Phl p 1, 93)] was 78%; that for KKPEVKYAVFEAALTKAIT (not fully specified) [peptide 143, Lol p 5a (Rye09B2)] was 99%; that for KPEVKYAVFEAALTKAIT (not fully specified) [peptide 142, Lol p 5a (Rye09B1)] was 100%.
Still for that read-out and setting: the value for WLDAKSTWYGKPTGAGPKDN [peptide 201 (Phl p 1, 18)] was 47%.
Still for that read-out and setting: the value for EIKSTKPEASSGEPVVVHIT [peptide 203 (Phl p 1, 74)] was 71%.
TKKGNVWEVKSSKPLVGPFN [peptide 219 (Phl p 3, 47)]: in test [4], the Measured binding coverage 25 alleles worked out at 91%.
